Data as given in the RNAGym collection of RNA variant scans (doi:10.1093/molbev/msab373).

B1: Azoarcus group I ribozyme (parent)
chain: GUGCCUUGCGCCGGGAAACCACGCAAGGGAUGGUGUCAAAUUCGGCGAAACCUAAGCGCCCGCCCGGGCGUAUGGCAACGCCGAGCCAAGCUUCGGCGCCUGCGCCGAUGAAGGUGUAGAGACUAGACGGCACCCACCUAAGGCAAACGCUAUGGUGAAGGCAUAGUCCAGGGAGUGGCGAAAGUCACACAAACCGG

Variants of: B1
Experiment: reverse-splicing fitness (ratio to wild type); higher = more active; in vitro selection; Mg2+ level not given
Procedure, shortened: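 An in vitro group I ribozyme library with randomized positions was T7-transcribed and gel-purified. In triplicate, 10 pmol RNA in EPPS pH 7.5 was reacted with 50 pmoles of a 30-nt RNA substrate for 1 h at 37 °C across several added MgCl2 levels (1–48 mM), then stopped with EDTA. Products were reverse transcribed from a substrate-complementary primer, PCR-amplified and sequenced (HiSeq 4000). Fitness is a variant's read proportion after selection over that before, normalised to wild type.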

Variant	reverse-splicing fitness
C82A A111U A120G C150U C169G U176G	0.00517
C82A A111U A120G C150U C169G U176C	0.0205
C82A A111U A120G C150U C169G U176A	0.0175
C82A A111U A120G C150G C169A U176G	0.00672
C82A A111U A120G C150G C169A U176A	0.0106
C82A A111U A120G C150G C169A U176C	0.00965
C82A A111U A120G A145U C169U	0.00974
C82A A111U A120G A145U C169A	0.00877
C82A A111U A120G A145U C169G	0.00975
C82A A111U A120G A145U C150U C169U U176A	0.0207
C82A A111U A120G A145U C150U C169U U176G	0.00524
C82A A111U A120G A145U C150U C169U U176C	0.0148
C82A A111U A120G A145G C150A C169U U176G	0.0069
C82A A111U A120G A145G C150A C169U U176C	0.0167
C82A A111U A120G A145G C150A C169U U176A	0.0197
C82A A111U A120G A145G C150A C169U	0.00929
C82A A111U A120G A145U C150G C169A	0.00884
C82A A111U A120G A145U C150G C169U	0.00845
C82A A111U A120G A145U C150G C169G	0.00685
C82A A111U A120G C150A U176G	0.0101
C82A A111U A120G C150A U176A	0.0123

Variant	reverse-splicing fitness
C82A A111U A120G C150A U176C	0.0188
C82A A111U A120G A145U C150A C169G	0.00859
C82A A111U A120G A145U C150A C169U	0.0069
C82A A111U A120G A145U C150A C169A	0.00942
C82A A111U A120G C169A	0.0102
C82A A111U A120G A145U C150G C169G U176C	0.00476
C82A A111U A120G A145U C150G C169G U176A	0.00656
C82A A111U A120G A145U C150G C169G U176G	0.00488
C82A A111U A120G A145G C150U C169A U176A	0.0144
C82A A111U A120G A145G C150U C169A U176G	0.00668
C82A A111U A120G A145G C150U C169A U176C	0.0165
C82A A111U A120G A145U C169U U176G	0.0047
C82A A111U A120G A145U C169U U176A	0.0196
C82A A111U A120G A145U C169U U176C	0.0159
C82A A111U A120G C150A C169A U176G	0.00665
C82A A111U A120G C150A C169A U176C	0.0237
C82A A111U A120G C150A C169A U176A	0.0214
C82A A111U A120G A145U C169A U176A	0.012
C82A A111U A120G A145U C169A U176C	0.0107
C82A A111U A120G A145U C169A U176G	0.00477
C82A A111U A120G A145G C150G U176G	0.00604

Variant	reverse-splicing fitness
C82A A111U A120G A145G C150G U176C	0.0105
C82A A111U A120G A145G C150G U176A	0.00704
C82A A111U A120G C150A C169G U176C	0.0227
C82A A111U A120G C150A C169G U176G	0.0059
C82A A111U A120G C150A C169G U176A	0.0215
C82A A111U A120G C150G U176C	0.00922
C82A A111U A120G C150G U176A	0.00663
C82A A111U A120G C150G U176G	0.00319
C82A A111U A120G A145U C150G	0.00799
C82A A111U A120G A145U C150A	0.00949
C82A A111U A120G A145U C150U	0.0134
C82A A111U A120G A145G C169A U176A	0.0222
C82A A111U A120G A145G C169A U176C	0.0259
C82A A111U A120G A145G C169A U176G	0.00503
C82A A111U A120G A145G C150A U176A	0.0111
C82A A111U A120G A145G C150A U176C	0.0209
C82A A111U A120G A145G C150A U176G	0.00816
C82A A111U A120G C150A C169U U176A	0.021
C82A A111U A120G C150A C169U U176C	0.02
C82A A111U A120G C150A C169U U176G	0.00816
C82A A111U A120G C150G C169U	0.00851

Variant	reverse-splicing fitness
C82A A111U A120G C150G C169G	0.00782
C82A A111U A120G C150G C169A	0.00926
C82A A111U A120G A145G C150U C169G U176A	0.0133
C82A A111U A120G A145G C150U C169G U176C	0.0178
C82A A111U A120G A145G C150U C169G U176G	0.00517
C82A A111U A120G A145U C150A C169A U176G	0.00486
C82A A111U A120G A145U C150A C169A U176C	0.0119
C82A A111U A120G A145U C150A C169A U176A	0.0146
C82A A111U A120G A145G C169G U176G	0.00424
C82A A111U A120G A145G C169G U176C	0.0285
C82A A111U A120G A145G C169G U176A	0.021
C82A A111U A120G C150U C169U U176G	0.00708
C82A A111U A120G C150U C169U U176A	0.0197
C82A A111U A120G C150U C169U U176C	0.0177
C82A A111U A120G A145U C150G U176C	0.00834
C82A A111U A120G A145U C150G U176A	0.00602
C82A A111U A120G A145U C150G U176G	0.00424
C82A A111U A120G A145U C150U C169G U176A	0.0153
C82A A111U A120G A145U C150U C169G U176G	0.00527
C82A A111U A120G A145U C150U C169G U176C	0.0147
